The values that follow come from article PMC3625992 (Structure (London, England : 1993), 2012).

For the test, the target named is T1, helicase and C-terminal regulatory domains of human RIG-I (helicase-CTD; residues 230–925) (human, UniProt O95786 230-925).
T1 sequence (looked up): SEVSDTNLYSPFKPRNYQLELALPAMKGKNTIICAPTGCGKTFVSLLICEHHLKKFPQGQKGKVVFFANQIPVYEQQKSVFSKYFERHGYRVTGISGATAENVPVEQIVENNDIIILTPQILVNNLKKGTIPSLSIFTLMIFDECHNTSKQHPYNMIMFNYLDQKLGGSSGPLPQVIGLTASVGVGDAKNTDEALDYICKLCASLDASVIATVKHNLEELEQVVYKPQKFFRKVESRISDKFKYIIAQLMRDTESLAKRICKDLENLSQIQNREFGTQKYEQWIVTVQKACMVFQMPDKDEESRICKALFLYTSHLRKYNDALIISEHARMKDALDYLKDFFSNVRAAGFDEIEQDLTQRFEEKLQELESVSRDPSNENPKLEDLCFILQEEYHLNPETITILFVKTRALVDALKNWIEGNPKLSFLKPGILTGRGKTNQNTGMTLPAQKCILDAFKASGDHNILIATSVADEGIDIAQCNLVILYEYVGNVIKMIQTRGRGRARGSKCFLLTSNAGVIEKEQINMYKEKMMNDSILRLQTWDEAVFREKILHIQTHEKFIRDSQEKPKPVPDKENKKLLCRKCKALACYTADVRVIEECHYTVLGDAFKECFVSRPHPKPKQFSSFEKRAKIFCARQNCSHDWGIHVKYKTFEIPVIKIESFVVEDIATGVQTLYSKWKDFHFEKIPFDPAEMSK
As to the kind of experiment: NMR titration.

B1: second CARD of human RIG-I (CARD2; residues 95–190) (domain or fragment, UniProt O95786 95-190, looked up)
chain: KKIEKLEEYRLLLKRLQPEFKTRIIPTDIISDLSECLINQECEEILQICSTKGMMAGAEKLVECLLRSDKENWPKTLKLALEKERNKFSELWIVEK
One may read the Kd as the concentration at which binding is half-saturated. Read a high Kd as weaker binding. For B1, the Kd stood at 1660 ± 1300 nM.
